# In the domain aggregation screens of Martell et al. (2025):
# Test: soluble fraction after stress (log2 fold change); higher = more stays soluble; pooled small domains, quantitative proteomics
# Details: stress: 50 degC
# Procedure, shortened: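 Pooled custom libraries of small protein domains were measured in a high-throughput format, with quantitative proteomics as the read-out. Each library was stressed at 50°C. Aggregation propensity is given as the base-two logarithm of the fold change in how much of each protein stays soluble after the stress. Higher values mean a larger share of the protein remains in solution.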
row,Sequence,soluble fraction (log2)
1,HMRPSGEAVNAAYRLLKGANPSGNEGDLIQRAQEVAAILPKLNRSSAAAFAKDAKANGLTQAETIALWKGS,0.225
2,HMNEYIVSAEQEGMRLDVFLTEQMEGSRSYIQSLIKGGHVTVGDKVGKANLRLTPDTVIHVEIPEPE,0.0524
3,HMTKEEKEKREKYEKLMKKADELVTAKNHKEAVTVLGQAKAYANPQQTKEIEEKIKAQTAELDKG,0.239
4,HMSSRNLIIFYDSPQAENALLATAERYGAILLHHYRNLHGIAVAIPADKDMAQAVTYFSRQPGVRQV,-0.803
5,HMSIGKEATPDDIVPNIRVYHATFGYGNVIKTDGVSHDKKAVVNFDSVGEKTLLLKFAKLILPY,0.138
6,HMGSGQIRYITENTVRVVYGTSKENEFVFQDGKPYPKDTPYHIHYTRNLEEYFMSGVEHDKNSKIILKVD,-0.803
7,HMGLPPIATGVNDNMSFSQAFAAARAEVGAGGAFEWHGRVYGTYYKNEWDGMSAQERHDFEIAAIRGS,-0.166
8,HMSVIKERLTEFLTYKGIGQIKFAEAAGLSRGFVNVLGDGISSKSLNKISQAFPELNTLWLTTGEGEML,-1.91
9,HMYEPPTEDEKRVLSLLATRESIVRSDVDRLLGVSQSTANRILKQMIEKYLISQEGTGKNTKYIK,-0.0391
10,HMTDLDVAVTMTVALEEAVNGATRRVRLPNGKELNVKIPAGVAAGQQIRLKGQGETAPGHRPGDVLITVNI,-0.262
11,HMVLTYYSVLGVKTDATTEEIKSTYKQLAIRNHPDRGGSEEVMKMINLAAEILSDPKSRKEYDLSLDA,-2.87
12,HMHVSLADQAYKTIRTNILNLTYPPGTQLTEAKLASDLNMSRSPVRTAIKMLQADGLLVSDYYKSMTVK,-0.514
13,HMASATGVVTAASLNVRSGAGTNYSVVNTLAKGTKVTVLNTADGWYEIEATVNNEKITGYVSATYIAMD,0.222
14,HMKITFNPVSSGRLDIILAEKTGYTRSYVKQLVEKQAVTINGEAAKKSGQNVKAGDEIALDEP,0.0957
15,HMTAIKAGDLVKITGTKYYGGQTIPGWVKNQNWYVQEVSGDRAVINKNESGTNAIMSPIRVSDLTPVS,0.183
16,HMKIVFGHVKWFDIDKGFGFLVLEDEGGDVLLHANVLKNFGRTSVSEDTKIEFEFLETDKGRQVSTIYNIL,-3.85
17,HMSGDKKLQMNLILEFAQQNESFRTKDIEELLQIRSSRARKLISDLVTEGRLEALGENRNRRYQLI,-0.985
18,HMPNNNDIVLDRVSFGYHEKEVLHGIDMTIREGTVNALVGPSGSGKSTIAKLIAGLWDVDGGSISF,0.154
19,HMELGRQDSAQLGRWAAGILAKNGKKITGRTMEFFLSRTGDDMENISSELEKLISYTLGREVITEEDIEAV,-0.351

row,Sequence,soluble fraction (log2)
1,HMPPTSADGIEKYLASGMIRGVGPVYAKKLVSAFGDKVFDIIEAAPHQLQEVEGIGRVRAASILAAWAEQ,0.134
2,HMKGLDAAVVDLFKSKGASIVFAGNRLSLSGEVADQATKDELLAKAKAILASLGASVSLDDKLMVKGAKAS,0.0298
3,HMPSPTPEQVLKAFTDAAMQKNTVEELKQAFAKAWKMLEGTPEQHKAQDVYNIRRDELEGAA,-0.173
4,HMQFYSGLEARLMDPNTPEVFDDPISLMAFLQQKNISRVELEDNLLLPYLKEMAGQPIPKAELLEIIRK,-0.475
5,HMSVEYRKTLSDGNEYQIVKEKNGYVIKKSLNEGLDYLEPMKNRKYYSSYSQAFKRLNLIAKEVNINEGYD,-0.138
6,HMTPYEVLVYESLKQKILSGGYAAGEKIPEQSVSEELGVSRSPLRSAIRRLASEGLIEYYPYRGAFVKA,-0.347
7,HMVMVVDVLKALSNNSSDKFFNTSISNAIKAQEDSQEDFVTLFGIEYEKLSPNNGLAVIFTSQ,0.425
8,HMINGTITFYDDTTLKGELSSLDTKYLFIIPNGLVMPEKIAVSDIEYFNLDNGITLIQDGISKQTY,-1.25
9,HMNEMEFAQRLRQFRKAKNLTQQELADRLGVSNKSVSRWESGSYPDVGTLVALARALGVTVDELLDPKA,0.0532
10,HMTDFDPDGREKLIKVQKALHFNNHQLADALRVGQATFSSYIYGRVAAGVPVRVVKAAEDLLKNSKATV,-0.303
11,HMTTEPYILTRMPDGSIKAEPNLNYKGPEQKPGSNIQVKGADGRIYLVPIDGQGKPGKPQLVD,0.116
12,HMQKEMDIVLQINGKMRSNLKVSSTANDDEIIKTAIESDAYKKFSLGLRIQKTIIVPNRLINIVLEK,-0.985
13,HMNLKDINLNVRHYKIIDFVREHGYASIETLTRQFGVSAQTVRRDIIYLDNQAVLKRHHGGVGTLPG,-1.99
14,HMDPTVSGQTGSVVREIRPGVPGEVELSVPLYGIRRWQAMADGILAEGTRVTVIQAEGVRLSVRPV,-0.0839
15,HMNGLNISYRMDGENVVETIVFPDATMIRTIAPNGVMTIKTIEDGSVSTSELKADYKLYKKIYESQY,-0.262
16,HMVERQVTVPNLTGLGVADAQRLAQSMELDIEVLGEQESTDARPGAVLQQTPGAGTRAAAGSVVSVLV,0.0752
17,HMSSIGERISDVRKARGYTQDQLAERIHVSRQTISHWENERALPDFESIKQLSQVLGYDFSS,-0.00328
18,HMQAGPEDIIRAKLKTAMPEAQIISIRPTPAGLYQVNAKGYESVFVTADGRYLFQGDLLEIQGDRIVNL,-0.123
19,HMDVNKDLLGETLEKAKSYKADDWRKASYEALQKAIVEAEAVYKDEEADQVAVDRKVAALNKAINNLEAKG,-0.234
